Measured values reported in the supplement of paper PMC9112550, “Optimization of the antimicrobial peptide Bac7 by deep mutational scanning” (BMC Biology, 2022).

System: Escherichia coli TOP10
Test: shrunken log2 fold change of peptide-encoding DNA abundance (4.5 h post-induction vs induction); higher = less antimicrobial activity (less host growth inhibition)
Conditions: time post-induction: 4.5 h; library: site-saturation at positions 5, 18, 19, 20
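Note: peptides expressed intracellularly from a pBAD plasmid library in pooled LB shake-flask culture, induced with 0.3% L-arabinose, DNA abundance read by NGS, three biological replicates, DESeq2 with apeglm shrinkage.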

Sequence	shrunken log2 fold change
RRIRWRPPRLPRPRPRPGPPPRP	0.671
RRIRQRPPRLPRPRPRPKKWPRP	-0.0403
RRIRQRPPRLPRPRPRPRLEPRP	0.109
RRIRERPPRLPRPRPRPDSVPRP	-0.17
RRIRMRPPRLPRPRPRPVYEPRP	0.352
RRIRFRPPRLPRPRPRPLFYPRP	-0.0429
RRIRVRPPRLPRPRPRPGIIPRP	0.136
RRIRVRPPRLPRPRPRPISDPRP	-0.0883
RRIRMRPPRLPRPRPRPPPEPRP	1.82
RRIRARPPRLPRPRPRPLGVPRP	1.44
RRIRVRPPRLPRPRPRPKADPRP	0.0681
RRIRKRPPRLPRPRPRPDINPRP	0.193
RRIRHRPPRLPRPRPRPCHYPRP	-0.4
RRIRMRPPRLPRPRPRPYHTPRP	-1.11
RRIRFRPPRLPRPRPRPMDIPRP	-0.0635
RRIRDRPPRLPRPRPRPLTPPRP	0.128
RRIRLRPPRLPRPRPRPFCAPRP	0.106
RRIRARPPRLPRPRPRPKREPRP	0.422
RRIRHRPPRLPRPRPRPDALPRP	0.227
RRIRFRPPRLPRPRPRPLKLPRP	-0.147
RRIRGRPPRLPRPRPRPDQNPRP	0.00612
RRIRGRPPRLPRPRPRPQDDPRP	0.114
RRIRNRPPRLPRPRPRPKSKPRP	0.0844
RRIRFRPPRLPRPRPRPCLRPRP	-0.205
RRIRERPPRLPRPRPRPMCQPRP	-0.051

Sequence	shrunken log2 fold change
RRIRCRPPRLPRPRPRPTNFPRP	-0.124
RRIRNRPPRLPRPRPRPFDYPRP	-0.262
RRIRTRPPRLPRPRPRPTMWPRP	-0.0407
RRIRQRPPRLPRPRPRPAEFPRP	-0.0119
RRIRPRPPRLPRPRPRPITDPRP	-0.16
RRIRGRPPRLPRPRPRPPMGPRP	0.59
RRIRDRPPRLPRPRPRPTDIPRP	-0.231
RRIRFRPPRLPRPRPRPADWPRP	0.36
RRIRYRPPRLPRPRPRPTQAPRP	-0.00154
RRIRSRPPRLPRPRPRPSHGPRP	-0.19
RRIRQRPPRLPRPRPRPHYQPRP	-0.0204
RRIRHRPPRLPRPRPRPGFSPRP	-0.236
RRIRWRPPRLPRPRPRPQTRPRP	0.122
RRIRWRPPRLPRPRPRPRPEPRP	0.502
RRIRRRPPRLPRPRPRPHHHPRP	-0.161
RRIRHRPPRLPRPRPRPCPRPRP	-0.28
RRIRYRPPRLPRPRPRPYDMPRP	-1.35
RRIRFRPPRLPRPRPRPHWIPRP	-0.151
RRIRIRPPRLPRPRPRPEFLPRP	-0.0199
RRIRMRPPRLPRPRPRPDKRPRP	0.076
RRIRARPPRLPRPRPRPVGNPRP	0.0787
RRIRDRPPRLPRPRPRPRNMPRP	-0.602
RRIRERPPRLPRPRPRPVVCPRP	0.0991
RRIRDRPPRLPRPRPRPYIEPRP	-0.0649
RRIRRRPPRLPRPRPRPGHFPRP	-0.204

Sequence	shrunken log2 fold change
RRIRQRPPRLPRPRPRPELCPRP	0.177
RRIRERPPRLPRPRPRPMLEPRP	0.282
RRIRWRPPRLPRPRPRPTRGPRP	0.329
RRIRKRPPRLPRPRPRPQNMPRP	-0.521
RRIRWRPPRLPRPRPRPMQWPRP	0.379
RRIRYRPPRLPRPRPRPSINPRP	-0.39
RRIRSRPPRLPRPRPRPSTAPRP	-0.0171
RRIRNRPPRLPRPRPRPFVSPRP	-0.394
RRIRVRPPRLPRPRPRPCWQPRP	-0.0523
RRIRHRPPRLPRPRPRPYDSPRP	-0.0275
RRIRVRPPRLPRPRPRPVFPPRP	0.038
RRIRSRPPRLPRPRPRPKYEPRP	-0.147
RRIRDRPPRLPRPRPRPHKDPRP	-0.239
RRIRWRPPRLPRPRPRPMCCPRP	0.181
RRIRGRPPRLPRPRPRPGNYPRP	-0.0899
RRIRHRPPRLPRPRPRPIYYPRP	-0.32
RRIRWRPPRLPRPRPRPYMEPRP	-0.101
RRIRNRPPRLPRPRPRPVKLPRP	0.032
RRIRERPPRLPRPRPRPRNWPRP	-0.0255
RRIRCRPPRLPRPRPRPKNAPRP	-0.103
RRIRKRPPRLPRPRPRPEEHPRP	2.61
RRIRKRPPRLPRPRPRPYQEPRP	0.0431
RRIRRRPPRLPRPRPRPINFPRP	-0.0729
RRIRLRPPRLPRPRPRPHTYPRP	-0.257
RRIRSRPPRLPRPRPRPFGFPRP	-0.137

Sequence	shrunken log2 fold change
RRIRYRPPRLPRPRPRPFRTPRP	-0.0801
RRIRHRPPRLPRPRPRPVSSPRP	-0.0295
RRIRERPPRLPRPRPRPFELPRP	-0.0731
RRIRTRPPRLPRPRPRPLLHPRP	0.0651
RRIRMRPPRLPRPRPRPWDKPRP	-0.0134
RRIRPRPPRLPRPRPRPNVQPRP	0.0803
RRIRQRPPRLPRPRPRPMYRPRP	0.0341
RRIRPRPPRLPRPRPRPYTPPRP	-0.447
RRIRPRPPRLPRPRPRPSRQPRP	0.357
RRIRNRPPRLPRPRPRPYTCPRP	-0.0637
RRIRARPPRLPRPRPRPPKDPRP	1.78
RRIRLRPPRLPRPRPRPRYAPRP	0.00198
RRIRQRPPRLPRPRPRPLYSPRP	-0.649
RRIRARPPRLPRPRPRPDQYPRP	0.151
RRIRTRPPRLPRPRPRPMCTPRP	-0.0211
RRIRTRPPRLPRPRPRPKRMPRP	-0.157
RRIRSRPPRLPRPRPRPTEKPRP	0.0802
RRIRWRPPRLPRPRPRPHYCPRP	-0.269
RRIRARPPRLPRPRPRPEELPRP	0.499
RRIRSRPPRLPRPRPRPCCTPRP	-0.0345
RRIRMRPPRLPRPRPRPMPDPRP	0.716
RRIRRRPPRLPRPRPRPEDIPRP	0.06
RRIRCRPPRLPRPRPRPTHPPRP	0.164
RRIRVRPPRLPRPRPRPILNPRP	-0.287
RRIRRRPPRLPRPRPRPIPIPRP	-0.0501

Sequence	shrunken log2 fold change
RRIRLRPPRLPRPRPRPKFEPRP	0.0662
RRIRNRPPRLPRPRPRPKKWPRP	-0.00407
RRIRYRPPRLPRPRPRPALKPRP	0.0554
RRIRKRPPRLPRPRPRPFHLPRP	0.0215
RRIRMRPPRLPRPRPRPFGPPRP	-0.159
RRIRYRPPRLPRPRPRPRQQPRP	0.226
RRIRSRPPRLPRPRPRPRNEPRP	0.00717
RRIRTRPPRLPRPRPRPSTPPRP	-0.195
RRIRTRPPRLPRPRPRPWTVPRP	-0.0107
RRIRWRPPRLPRPRPRPVHWPRP	0.138
RRIRIRPPRLPRPRPRPNRKPRP	0.00157
RRIRSRPPRLPRPRPRPDVKPRP	-0.0928
RRIRERPPRLPRPRPRPCLGPRP	-0.0295
RRIRYRPPRLPRPRPRPSRRPRP	0.0397
RRIRGRPPRLPRPRPRPAFIPRP	-0.177
RRIRMRPPRLPRPRPRPWYFPRP	-0.282
RRIRQRPPRLPRPRPRPHMDPRP	-1.07
RRIRLRPPRLPRPRPRPIKMPRP	-0.347
RRIRSRPPRLPRPRPRPFSQPRP	-1.07
RRIRLRPPRLPRPRPRPNGQPRP	0.00827
RRIRERPPRLPRPRPRPTYMPRP	-0.121
RRIRKRPPRLPRPRPRPVQRPRP	0.0869
RRIRMRPPRLPRPRPRPTTFPRP	0.00693
RRIRPRPPRLPRPRPRPHENPRP	-0.0875
RRIRCRPPRLPRPRPRPMWQPRP	0.183

Sequence	shrunken log2 fold change
RRIRRRPPRLPRPRPRPNGKPRP	0.02
RRIRRRPPRLPRPRPRPGARPRP	0.507
RRIRRRPPRLPRPRPRPNICPRP	0.0828
RRIRSRPPRLPRPRPRPDSPPRP	0.242
RRIRLRPPRLPRPRPRPPPIPRP	0.935
RRIRSRPPRLPRPRPRPSMHPRP	0.402
RRIRERPPRLPRPRPRPALRPRP	0.0887
RRIRFRPPRLPRPRPRPDCLPRP	-0.0266
RRIRHRPPRLPRPRPRPAWAPRP	0.48
RRIRWRPPRLPRPRPRPCSEPRP	-0.206
RRIRYRPPRLPRPRPRPVTIPRP	-0.0242
RRIRVRPPRLPRPRPRPNWWPRP	0.175
RRIRMRPPRLPRPRPRPAGEPRP	1.87
RRIRMRPPRLPRPRPRPIAGPRP	-0.0293
RRIRFRPPRLPRPRPRPINLPRP	-0.291
RRIRDRPPRLPRPRPRPINMPRP	0.00272
RRIRSRPPRLPRPRPRPPGDPRP	0.344
RRIRNRPPRLPRPRPRPGFHPRP	-0.0379
RRIRFRPPRLPRPRPRPPEDPRP	0.357
RRIRARPPRLPRPRPRPHDMPRP	0.245
RRIRLRPPRLPRPRPRPAWFPRP	0.103
RRIRPRPPRLPRPRPRPDDAPRP	-0.0674
RRIRKRPPRLPRPRPRPEFSPRP	0.397
RRIRWRPPRLPRPRPRPFSQPRP	-0.0772
RRIRGRPPRLPRPRPRPKYNPRP	0.02
